In the data set the target is MSH2;MSH3 (Homo sapiens;Homo sapiens, UniProt P43246;P20585 1-934;1-1137, |). Kind of data set: gel filtration; 1:1:1 OGG1, MSH2-MSH3, DNA; MSH2-MSH3-DNA peak; 10 mM HEPES pH 8.1, 110 mM NaCl, 1 mM DTT, 0.1 mg/ml BSA, 10% glycerol, 0.25% inositol, 5 mM Mg2+, 2 mM ATP, 2 mM ADP; on ice (EMSA 10 min, gel at 4 °C; footprint binding 15 min, DNase I at 37 °C); 25 nM DNA. As to conditions: protein: recombinant;recombinant; tags: ;His; copies: 1;1.

We go through one molecule from article PMC4996945, “Crosstalk between MSH2–MSH3 and polβ promotes trinucleotide repeat expansion during base excision repair”.

B1: CAG-duplex (80) with one 8-oxo-G (dsDNA)
DNA 1: CAAGCACGTTGACTACCGTCCAGCAGCAGCAGCAGCAGCAGCAGCAGCAGCAGCAGCAGTTTGAGGCAGAGTCCGAACAC
DNA 2: GTGTTCGGACTCTGCCTCAAACTGCTGCTGCTGCTGCTGCTGCTGCTGCTGCTGCTGCTGGACGGTAGTCAACGTGCTTG
modifications: one 8-oxo-G (stated position 17, exact G not marked in text); complement not given
B1: the binding result is on record as “binds”.
